The supplement of paper PMC9170038

System: MS2 coat protein
Experiment: apparent KD of MS2 coat protein; designed switch direction (-1 OFF switch, 1 ON switch): -1; higher = weaker reporter binding
Method in brief: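 Designed RNA switches sharing common flanks were transcribed on Illumina chips by stalled E. coli RNA polymerase. They were titrated with SNAP-549-labelled MS2 coat protein, from 0.7 or 1.5 nM doubling to 3 µM, in Tris-HCl pH 7.5 buffer with KCl, MgCl2, BSA, DTT, tRNA and Tween-20. Titrations ran without input, with 200 uM small-molecule ligand, or with an oligonucleotide input. The apparent KD of each design is the median over its clusters, after curve-fitting of normalised cluster fluorescence.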

[1] = input ligand: microRNA oligo, concentration not stated
[2] = Eterna round: R95, input ligand: FMN 200 uM
[3] = Eterna round: R95, input ligand: microRNA oligo, concentration not stated
[4] = Eterna round: R95, input ligand: none

Sequence	apparent KD of MS2 coat protein (input ligand: FMN 200 uM)	apparent KD of MS2 coat protein [1]	apparent KD of MS2 coat protein (input ligand: none)	apparent KD of MS2 coat protein [2]	apparent KD of MS2 coat protein [3]	apparent KD of MS2 coat protein [4]
CUCUUGGCAGGAUAUGCUCUCUUAGACAUGAGGAUCACCCAUGUGUUCAUUCUUUCUUUUGCAGAAGGGCCUUAAC [JR_E5_Sub046] (Eterna round: R96, puzzle: Exclusion 5)	128 nM	57.9 nM	76.9 nM			
UUUUACAGGCUUAGAUCCUACAUGAGGAUCACCCAUGUGGUGGCGUGUCGUGAGACAUGCCACUAAGCUCGUCUUGU [JL TOV1 3.73] (Eterna round: R97, puzzle: Sensor, turn-off variant 1)	98.3 nM		103 nM			
CAAAACACUGGAGGAUAUUGGAAAGGAAGUGUACAAGAAGGCCAGCUCUAACAUGAGGAUCACCCAUGUCCAGGGCAUGGGCAA [PowerStrip EXNG 1.12] (Eterna round: R96, puzzle: Exclusion NG 1)	31.8 nM	19.9 nM	11.7 nM			
AGUACUAUCACGAAAGUGAUAGUACAAAAAGCAAGUGAAACAUGAGGAUCACCCAUGUCCUCAUUUGCUCGUCUUAU [JL turnoff v2 99] (Eterna round: R96, puzzle: Sensor v2, turn-off variant 2)	12.2 nM	375 nM	14.4 nM			
AUCUUGUCAGGAUAUCUUACAUAACAAUCGUAGUUACCAUUGGAGAAGGGACAUGAGGAUCACCCAUGUUAGCC [tap-tap-tappy42] (Eterna round: R97, puzzle: Exclusion 4)	20.8 nM		19.8 nM			
AUAUUACAUGAGGAUCACCCAUGUGAGGAUAUGGAGCGAGACUGUCCUGUCGCGUACACCAGAAGGCGCGGGUG [1st #52] (Eterna round: R97, puzzle: Exclusion 1)	183 nM		118 nM			
CCCAGUUAUCUAGGAUAUUGUACAUGAGGAUCACCCAUGUAAUAAAUGAGGAUUUCGGGUGUCUACAAGAAGGAGAGGAUAGGC [Ostracism 16 - Jieux - Exclusion NG 2] (Eterna round: R96, puzzle: Exclusion NG 2)		20.4 nM				
GUCCUGGACUAUCACAAGCACAUGAGGAUCACCCAUGUCAUGGGUGGGUCACUAAGUACGGCUACUGCUCGUCUUAU [Cac Sensor turn off var1 sub8] (Eterna round: R97, puzzle: Sensor, turn-off variant 1)	436 nM		495 nM			
AUAAUGUCAGGAUAUACUAAUGAUGAAUGAUUAGACAUUAUGUAGAAGGGACAUGAGGAUCACCCAUGUAAUAU [EX4 #2] (Eterna round: R97, puzzle: Exclusion 4)	39.9 nM		26.8 nM			
GGACAUGCAGGAUAUGUAAAAUUUGACAUGAGGAUCACCCAUGUAGAUCCUGAAUUUCCUGCAGAAGGGCAUGUCC [Mat - Exclusion 5 - Eli Mod - D18] (Eterna round: R97, puzzle: Exclusion 5)	396 nM		109 nM			
CUAAUACAUCAGGAUAUCUUAGCCUAUAGCAUAAGAGAAGGGAUGACAUGAGGAUCACCCAUGUCAAAGGGUGA [eternacac ex6r4 sub20] (Eterna round: R97, puzzle: Exclusion 6)	304 nM		929 nM			
CGUAAGCUAGGAUAUGCUUUGGGAAAGCAUUCCUUCGAUAAACUUGAGGAUCACCCAAGUAGAAGGAGCUUACU [salish99_ex2_r4_011] (Eterna round: R97, puzzle: Exclusion 2)	19.5 nM		12.5 nM			
AUGGUCCGAGGAUAUAUUAUGUGAUACAUGAGGAUCACCCAUGUUAUAUGAUGGAUGUUAGUAGAAGGCGGACUAC [salish99_ex5_r3_002] (puzzle: Exclusion 5)				89.3 nM	82.2 nM	103 nM
AAUGCUGGUGUGAGGAUAUCAGCUGAAGAACAGAAUGAGAAGGCACAUGAGGAUCACCCAUGUAAAAGAAUAAA [Atbelaqu] (Eterna round: R97, puzzle: Brourd's mod of Exclusion 4)	35.9 nM		25.6 nM			
GUUAAACAUGAGGAUCACCCAUGUAAGGAUAUGCUGCGGUCGCGAUGAAGUGACUGCAGCAGAAGGUACAAAUG [Mat - Mod of JL D59] (puzzle: Exclusion 1)				89.8 nM	92 nM	102 nM
ACCGAACAUGAGGAUCACCCAUGUGAGGAUAUCCCGAGAUUAAAUGCCGCAAGAAGGCGGAGAAGGCGCAUGGG [Ditiesre] (puzzle: Exclusion 1)				45.2 nM	23.7 nM	31.3 nM
AGCUUUUUGCUCGUCUUAUACAUGAGGAUCACCCAUGUAUUGGACCACAUCGAUAGAUGUGGACCAAGAAGCGUGGU [Omdei Mir OFFv1 C4] (Eterna round: R97, puzzle: Sensor, turn-off variant 1)	38.6 nM		39.7 nM			
GGUCAGACGGUAGGAUAUCCAUAUCGAGUGACCCUUUCAUAACAUGAGGAUCACCCAUGUCGGUGGGAGAAGGGCCGUACGGCG [salish99_ExNG02_R04_001] (Eterna round: R96, puzzle: Exclusion NG 2)	146 nM	70.4 nM	63.2 nM			
GUAUAACAUGAGGAUCACCCAUGUGAGGAUAUGCGAAUUUCAUCAAAAGAUGAAAUUUGCAGAAGGCACAGUAC [Omei Ex1 A12] (Eterna round: R97, puzzle: Exclusion 1)	93 nM		66.3 nM			
AUUUUGUCAGGAUAUGAGUAGUAGGACGAAAGUGCUACUACUUAGAAGGGACAUGAGGAUCACCCAUGUCUUCC [Bring Us a Shrubbery-05] (puzzle: Exclusion 4)					13.5 nM	
UCGCUCCGUGUAGGAUAUCGCCGUUCUAUUCGGCGAGAAGGACAUGAGGAUCACCCAUGUAUGUUAUUAUCACGCGUGGCGCAA [Design 58] (Eterna round: R96, puzzle: Exclusion NG 1)		12.5 nM				
ACCCUAAUCGUGAGGAUAUACUGCGUCAAAGACGGGUAGAAGGUACAUGAGGAUCACCCAUGUUUGGCUACUAA [Eternabot (L2) Solution 48] (Eterna round: R97, puzzle: Brourd's mod of Exclusion 4)	28.3 nM		27.7 nM			
UAUAUAUAGUAAGGAUAUGUAUUUAUUUCAUAAACAGAAGGUACUGACAUGAGGAUCACCCAUGUUUUAGUGUGGGCAUGUAGA [JMF's solution 21] (Eterna round: R96, puzzle: Exclusion NG 1)		62.1 nM				
AGAUCUAGGACAGGAUAUAUGGAUGUCUUCAUCGAAGAUGAAGACAUCACAUGAGGAUCACCCAUGUAGAAGGGUCCUAGAUCA [Omei Exc(NG) 2Av2] (Eterna round: R96, puzzle: Exclusion NG 2)	11.9 nM	13.5 nM	15.6 nM			
AUAAGUGAUAAGGAUAUUACUAGCUGCGGCUAGUGAGAAGGUAUCACAUGAGGAUCACCCAUGUGUUCCAAUAA [Ex6/7-B3] (Eterna round: R97, puzzle: Exclusion 6)	254 nM		134 nM			
